In patent US6339139:

Legend:
Experiment in all cases: cell-based or functional assay
[1] = target: insulin growth factor II receptor (human) (UniProt P11717)
[2] = target: insulin growth factor I receptor (human) (UniProt P08069)
[3] = target: epidermal growth factor receptor (human) (UniProt P00533)

Chain of UniProt P08069 (P08069 31-1367): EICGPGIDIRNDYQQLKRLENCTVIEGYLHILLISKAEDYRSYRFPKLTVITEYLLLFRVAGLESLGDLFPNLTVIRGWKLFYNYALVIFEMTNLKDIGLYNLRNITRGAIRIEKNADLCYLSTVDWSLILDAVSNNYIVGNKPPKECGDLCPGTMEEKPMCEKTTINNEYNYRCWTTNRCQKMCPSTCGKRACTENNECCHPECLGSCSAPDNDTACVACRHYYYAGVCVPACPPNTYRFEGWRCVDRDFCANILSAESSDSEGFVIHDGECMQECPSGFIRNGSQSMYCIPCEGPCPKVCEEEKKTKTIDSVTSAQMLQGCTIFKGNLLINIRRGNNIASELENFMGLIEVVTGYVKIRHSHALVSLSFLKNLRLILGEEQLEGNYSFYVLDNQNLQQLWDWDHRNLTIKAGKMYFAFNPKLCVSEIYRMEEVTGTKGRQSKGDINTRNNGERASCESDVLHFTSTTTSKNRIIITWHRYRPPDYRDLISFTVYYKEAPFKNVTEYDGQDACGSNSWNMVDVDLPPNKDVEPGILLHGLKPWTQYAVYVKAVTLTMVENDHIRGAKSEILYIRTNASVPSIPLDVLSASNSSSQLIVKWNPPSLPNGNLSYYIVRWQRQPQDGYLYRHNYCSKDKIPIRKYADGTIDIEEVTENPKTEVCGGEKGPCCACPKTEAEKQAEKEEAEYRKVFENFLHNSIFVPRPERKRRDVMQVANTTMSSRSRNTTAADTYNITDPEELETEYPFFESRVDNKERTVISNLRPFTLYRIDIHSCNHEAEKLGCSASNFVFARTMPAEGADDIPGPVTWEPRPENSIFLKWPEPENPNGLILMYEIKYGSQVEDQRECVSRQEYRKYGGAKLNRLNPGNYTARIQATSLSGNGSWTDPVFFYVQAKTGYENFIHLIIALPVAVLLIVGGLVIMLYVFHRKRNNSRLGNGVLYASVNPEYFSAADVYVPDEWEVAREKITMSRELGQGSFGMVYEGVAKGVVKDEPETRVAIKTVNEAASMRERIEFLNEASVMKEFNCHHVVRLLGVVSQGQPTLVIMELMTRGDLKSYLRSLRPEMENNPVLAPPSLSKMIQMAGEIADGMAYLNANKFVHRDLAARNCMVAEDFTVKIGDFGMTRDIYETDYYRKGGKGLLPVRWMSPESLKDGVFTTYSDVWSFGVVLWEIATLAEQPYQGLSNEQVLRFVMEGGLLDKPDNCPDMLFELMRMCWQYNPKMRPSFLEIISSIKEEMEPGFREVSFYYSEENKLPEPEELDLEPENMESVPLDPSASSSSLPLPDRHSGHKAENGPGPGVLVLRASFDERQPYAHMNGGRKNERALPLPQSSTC
Chain of UniProt P11717 (P11717 41-2491): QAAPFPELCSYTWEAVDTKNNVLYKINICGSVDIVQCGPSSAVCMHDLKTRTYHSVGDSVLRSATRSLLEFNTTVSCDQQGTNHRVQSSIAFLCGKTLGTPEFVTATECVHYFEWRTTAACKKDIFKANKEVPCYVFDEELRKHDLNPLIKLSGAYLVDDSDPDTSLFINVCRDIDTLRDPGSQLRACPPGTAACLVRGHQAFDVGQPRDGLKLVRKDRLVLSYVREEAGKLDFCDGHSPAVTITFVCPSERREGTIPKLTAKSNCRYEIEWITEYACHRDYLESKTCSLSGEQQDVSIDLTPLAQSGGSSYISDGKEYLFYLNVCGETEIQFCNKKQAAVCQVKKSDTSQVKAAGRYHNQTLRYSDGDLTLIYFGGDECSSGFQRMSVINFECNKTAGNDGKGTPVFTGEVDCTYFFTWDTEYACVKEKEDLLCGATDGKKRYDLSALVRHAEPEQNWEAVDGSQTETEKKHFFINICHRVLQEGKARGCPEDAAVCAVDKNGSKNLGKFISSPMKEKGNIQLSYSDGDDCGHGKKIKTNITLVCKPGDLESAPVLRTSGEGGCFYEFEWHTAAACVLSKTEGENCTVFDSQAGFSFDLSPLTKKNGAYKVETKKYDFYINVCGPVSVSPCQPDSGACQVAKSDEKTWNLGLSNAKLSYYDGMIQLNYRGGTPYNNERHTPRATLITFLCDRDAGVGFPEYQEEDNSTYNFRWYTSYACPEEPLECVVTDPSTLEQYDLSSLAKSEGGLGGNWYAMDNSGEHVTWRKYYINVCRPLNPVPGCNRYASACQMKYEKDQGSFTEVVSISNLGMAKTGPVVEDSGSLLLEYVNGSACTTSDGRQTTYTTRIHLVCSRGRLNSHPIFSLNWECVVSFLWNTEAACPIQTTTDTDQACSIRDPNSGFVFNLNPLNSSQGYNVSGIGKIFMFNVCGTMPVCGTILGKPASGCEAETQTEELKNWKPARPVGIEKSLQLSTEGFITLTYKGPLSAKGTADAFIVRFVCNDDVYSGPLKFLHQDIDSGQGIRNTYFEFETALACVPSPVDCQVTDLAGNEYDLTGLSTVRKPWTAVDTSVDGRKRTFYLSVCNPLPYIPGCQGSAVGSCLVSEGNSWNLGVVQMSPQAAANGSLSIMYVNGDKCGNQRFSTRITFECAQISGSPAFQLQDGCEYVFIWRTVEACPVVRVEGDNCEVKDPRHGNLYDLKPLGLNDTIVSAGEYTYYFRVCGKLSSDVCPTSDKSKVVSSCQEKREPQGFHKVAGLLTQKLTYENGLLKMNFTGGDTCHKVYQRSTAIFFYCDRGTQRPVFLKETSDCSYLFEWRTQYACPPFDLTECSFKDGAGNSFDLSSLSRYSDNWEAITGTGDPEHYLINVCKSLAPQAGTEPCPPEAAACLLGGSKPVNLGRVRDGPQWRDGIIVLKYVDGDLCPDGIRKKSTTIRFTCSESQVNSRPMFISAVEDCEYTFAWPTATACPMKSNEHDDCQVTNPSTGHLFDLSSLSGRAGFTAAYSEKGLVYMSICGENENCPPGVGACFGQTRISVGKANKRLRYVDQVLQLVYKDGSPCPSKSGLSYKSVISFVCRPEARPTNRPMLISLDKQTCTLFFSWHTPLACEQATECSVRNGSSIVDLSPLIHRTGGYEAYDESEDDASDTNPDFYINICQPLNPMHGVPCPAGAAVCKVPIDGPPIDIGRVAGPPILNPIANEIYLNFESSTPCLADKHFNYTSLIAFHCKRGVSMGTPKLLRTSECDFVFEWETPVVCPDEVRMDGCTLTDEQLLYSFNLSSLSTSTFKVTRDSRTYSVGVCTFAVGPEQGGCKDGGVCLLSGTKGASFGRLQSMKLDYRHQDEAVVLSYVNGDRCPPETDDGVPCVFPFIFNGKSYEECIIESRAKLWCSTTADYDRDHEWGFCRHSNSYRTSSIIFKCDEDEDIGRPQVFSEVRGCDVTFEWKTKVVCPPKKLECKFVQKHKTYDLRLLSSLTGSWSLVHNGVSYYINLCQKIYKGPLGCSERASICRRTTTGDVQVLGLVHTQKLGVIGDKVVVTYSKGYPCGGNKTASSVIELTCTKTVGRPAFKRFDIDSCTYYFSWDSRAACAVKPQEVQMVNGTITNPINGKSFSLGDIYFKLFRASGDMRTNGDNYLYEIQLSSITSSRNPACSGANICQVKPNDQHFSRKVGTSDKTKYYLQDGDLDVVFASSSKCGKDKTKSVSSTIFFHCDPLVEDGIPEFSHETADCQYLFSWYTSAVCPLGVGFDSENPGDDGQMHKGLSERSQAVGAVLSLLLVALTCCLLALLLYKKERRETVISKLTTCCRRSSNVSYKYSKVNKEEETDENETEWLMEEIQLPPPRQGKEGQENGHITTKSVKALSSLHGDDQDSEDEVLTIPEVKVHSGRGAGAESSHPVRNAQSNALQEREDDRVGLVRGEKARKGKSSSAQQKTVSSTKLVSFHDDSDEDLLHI

Substance | Percentage of β-gal positive cells, SMMC-7721 [1] [%] | Percentage of β-gal positive cells, SMMC-7721 [2] [%] | Percentage of β-gal (+) cells, 3AO [3] [%] | Percentage of β-gal (+) cells, BEL-7402 [3] [%] | Percentage of β-gal (+) cells, Bcap-37 [3] [%] | Percentage of β-gal (+) cells, SMMC-7721 [3] [%] | Percentage of β-gal (+) cells, SPC-A1 [3] [%] | Percentage of β-gal (+) cells, U87 [3] [%]
E5-polylysine/HA20-polylysine/pSV β-gal DNA | 60 | 60 |  |  |  |  |  | 
GE7-polylysine/HA20-polylysine/pSV-β-gal DNA |  |  | > 65 | > 90 | > 80 | > 80 | > 80 | > 30
E5-polylysine/pSV β-gal DNA | 10 | 10 |  |  |  |  |  | 
